In publication PMC6715182, “Helicobacter pylori senses bleach (HOCl) as a chemoattractant using a cytosolic chemoreceptor” (PLoS Biology, 2019):

T1: CheW-CheA complex (4 μM CheA with 40 μM CheW) (H. pylori (G27 strain) | H. pylori (SS1 …, UniProt B5Z859 1-807; O25152 1-165)
T1 sequence 1: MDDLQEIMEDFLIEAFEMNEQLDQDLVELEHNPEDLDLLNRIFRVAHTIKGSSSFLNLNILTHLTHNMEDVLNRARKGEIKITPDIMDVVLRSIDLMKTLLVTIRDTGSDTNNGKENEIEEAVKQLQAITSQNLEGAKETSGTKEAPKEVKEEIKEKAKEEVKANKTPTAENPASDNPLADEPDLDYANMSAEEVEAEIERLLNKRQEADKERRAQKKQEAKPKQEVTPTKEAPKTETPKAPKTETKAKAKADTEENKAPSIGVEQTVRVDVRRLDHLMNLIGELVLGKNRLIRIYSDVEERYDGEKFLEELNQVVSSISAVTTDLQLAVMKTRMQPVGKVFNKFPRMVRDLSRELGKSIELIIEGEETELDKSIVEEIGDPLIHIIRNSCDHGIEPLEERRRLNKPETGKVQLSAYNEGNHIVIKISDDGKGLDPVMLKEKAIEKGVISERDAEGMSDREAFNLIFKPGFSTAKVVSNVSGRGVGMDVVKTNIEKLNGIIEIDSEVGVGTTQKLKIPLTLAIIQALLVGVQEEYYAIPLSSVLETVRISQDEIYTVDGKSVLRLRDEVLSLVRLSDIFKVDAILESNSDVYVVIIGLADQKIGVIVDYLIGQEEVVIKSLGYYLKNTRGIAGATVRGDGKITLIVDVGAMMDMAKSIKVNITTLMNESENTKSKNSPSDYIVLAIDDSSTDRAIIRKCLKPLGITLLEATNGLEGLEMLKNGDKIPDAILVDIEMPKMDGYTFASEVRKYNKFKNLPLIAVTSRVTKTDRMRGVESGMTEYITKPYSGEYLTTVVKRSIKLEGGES
T1 sequence 2: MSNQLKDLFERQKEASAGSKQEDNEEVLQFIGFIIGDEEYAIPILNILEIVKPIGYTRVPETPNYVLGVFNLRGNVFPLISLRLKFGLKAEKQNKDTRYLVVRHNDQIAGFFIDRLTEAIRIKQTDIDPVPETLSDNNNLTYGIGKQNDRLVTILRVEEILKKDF

T2: Helicobacter pylori chemotaxis protein A (CheA), histidine kinase, recombinant (H. pylori (G27 strain), UniProt B5Z859 1-807)
T2 sequence: T1 sequence 1

B1: Helicobacter pylori transducer-like protein D (TlpD), recombinant, with intact N-terminal His tag (receptor)
chain: not shown
notes: TlpD, cytosolic chemoreceptor of H. pylori strain SS1, Uniprot A0A1U9IUC7; Monomer-dimer equilibrium; copies 2 is the dimer form; also called HpTlpD; TlpD(+His); source: E. coli ArcticExpress DE3, purified (Ni-NTA, gel filtration)
B2: Helicobacter pylori chemotaxis protein W (CheW), recombinant (natural protein)
chain: T1 sequence 2
notes: CheW scaffold protein of H. pylori strain SS1, Uniprot A0A1U9ITT8; no limits stated; source: E. coli ArcticExpress DE3, purified (Ni-NTA, gel filtration)
B3: Helicobacter pylori TlpD lacking the N-terminal His tag, TlpD(-His) (receptor)
chain: not shown
notes: TlpD, cytosolic chemoreceptor of H. pylori strain SS1, Uniprot A0A1U9IUC7; no limits stated; Tag cut by TEV protease; source: E. coli ArcticExpress DE3, purified (Ni-NTA, TEV protease, repurified, gel filtration)

Assays:
[1] = biological target: T1, CheW-CheA complex (4 μM CheA with 40 μM …); assay: cell-based or functional assay
[2] = biological target: T1, CheW-CheA complex (4 μM CheA with 40 μM …); assay: kinase activity titration (radio-ATP labelling of CheA autophosphorylation); TlpD titrated against 4 μM CheA and 40 μM CheW, 1 mM ATP; kobs values fit to a binding isotherm; CheA-CheW complex approximated as 2 μM; kinetically defined, estimated KD; 50 mM Tris (pH 7.5), 100 mM NaCl, 10 mM MgCl2, 20°C; details: both partners purified
[3] = biological target: the molecule itself; assay: AUC; interference; 1, 2 and 3 x 10 μM TlpD and 3 x 28 μM TlpD(-His) in PBS (pH 7), 1 mM TCEP, 20°C, 55,000 rpm; monomer and dimer peaks integrated (SedFit); dimer to monomers
[4] = biological target: T2, Helicobacter pylori chemotaxis protein …; assay: cell-based or functional assay
[5] = biological target: T2, Helicobacter pylori chemotaxis protein …; assay: kinase activity titration (radio-ATP labelling of CheA autophosphorylation); CheW titrated against 4 μM CheA, 1 mM ATP; kobs values fit to a binding isotherm; kinetically defined, estimated KD; 50 mM Tris (pH 7.5), 100 mM NaCl, 10 mM MgCl2, 20°C; details: both partners purified

Binder	CheA autophosphorylation (radio-ATP labelling), titration of TlpD against 4 μM CheA and 40 μM CheW, maximal activation over CheA alone [1]	Kd [2]	Kd [3]	stoichiometry N [3]	CheA autophosphorylation (radio-ATP labelling), titration of CheW against 4 μM CheA, maximal activation over CheA alone [4]	Kd [5]
B1	14.6 fold	15.2 µM	0.189 µM	2	–	–
B2	–	–	–	–	2.7 fold	14.6 µM
B3	–	–	0.0648 µM	2	–	–
